Assay results: PMC6061780 (Nucleic Acids Research, 2018)
Each block holds one binder with its values, some of them ahead of it.

Columns and labels:
Assay in all cases: ITC
[1] = target: T1, Sc eIF4E (residues T25–L213), His6 tag removed (Saccharomyces cerevisiae, UniProt P07260 25-213)
T1 sequence (looked up): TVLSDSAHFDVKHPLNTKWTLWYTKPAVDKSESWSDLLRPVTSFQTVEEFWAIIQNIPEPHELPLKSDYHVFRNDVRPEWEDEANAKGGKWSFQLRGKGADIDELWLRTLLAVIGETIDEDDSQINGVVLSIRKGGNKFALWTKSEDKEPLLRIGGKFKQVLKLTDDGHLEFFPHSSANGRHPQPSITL

[2] = target: Sc eIF4G (residues V448–N500; C+L+NC)-GB1 (Saccharomyces cerevisiae, UniProt P39935 448-500)
[3] = target: T2, Sc eIF4E Δ34 (residues V35–L213), His6 tag removed (Saccharomyces cerevisiae, UniProt P07260 35-213)
T2 sequence (looked up): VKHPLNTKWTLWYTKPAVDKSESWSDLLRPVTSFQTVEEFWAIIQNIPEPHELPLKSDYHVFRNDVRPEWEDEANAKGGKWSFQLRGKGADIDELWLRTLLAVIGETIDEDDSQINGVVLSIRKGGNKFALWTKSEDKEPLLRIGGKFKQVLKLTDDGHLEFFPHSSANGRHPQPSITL

Kd [1]: 3400 ± 300 nM
Binder: GPHMDLQYKTYAYSMNELYHLKPSLA (domain or fragment) [Sc Eap1p canonical motif (C)-GB1]

Kd [1]: 1000 ± 100 nM
Binder: SASYEEDPLISELVRSLPKRKFWRLRMG (domain or fragment, Saccharomyces cerevisiae, UniProt P36041 123-150, looked up) [Sc Eap1p L+NC fragment (residues S123–G150)-GB1]

Second part, the binder before the results:

B1: Sc eIF4E II-AA lateral surface mutant, His6 tag removed (ITC) (domain or fragment)
chain: GPHMTVLSDSAHFDVKHPLNTKWTLWYTKPAVDKSESWSDLLRPVTSFQTVEEFWAAIQNAPEPHELPLKSDYHVFRNDVRPEWEDEANAKGGKWSFQLRGKGADIDELWLRTLLAVIGETIDEDDSQINGVVLSIRKGGNKFALWTKSEDKEPLLRIGGKFKQVLKLTDDGHLEFFPHSSANGRHPQPSITL
Kd [2]: 1020 ± 90 nM

Binder: KKTAMLNFSSLTDPITNYKPMDLQYKTYAYSMNELYHLKPSLA (domain or fragment, Saccharomyces cerevisiae, UniProt P36041 80-122, looked up) [Sc Eap1p (residues K80–A122; N+C peptide)-GB1]
Kd [1]: 8 ± 4 nM

Binder: TDPITNYKPMDLQYKTYAYSMNELYHLKPSLA (domain or fragment, Saccharomyces cerevisiae, UniProt P36041 91-122, looked up) [Sc Eap1p (T91–A122; N_(short)+C)-GB1]
Kd [1]: 12.9 ± 0.9 nM
Kd [3]: 8.8 ± 0.5 nM
